{"source": "patent US20190218261A1", "about": "“TARGETED ENHANCED DNA DEMETHYLATION” (The Jackson Laboratory, priority 2016, published 2019)", "key": {"[1]": {"test_system": "hMLH1 expression (methylation-silenced hMLH1 promoter) in HEK293T cells", "assay": "hMLH1 mRNA levels by TaqMan qRT-PCR in transfected HEK293T cells", "type": "cell-based, human", "description": "To test the system, HEK293T cells were transfected with Casilio-ME components including Ct or Nt-fusion TET1-effector and a combination of 3 or 2 sgRNAs. Relative levels of hMLH1 mRNA were determined in TaqMan assays by using RNA extracted from cells 60 hours post-transfection and GAPDH as endogenous control for normalization of qRT-PCR measurements.\nCell culture and transfection. HEK293T cells were cultivated in Dulbecco's modified Eagle's medium (DMEM)(Sigma) with 10% fetal bovine serum (FBS)(Lonza), 4% Glutamax (Gibco), 1% Sodium Pyruvate (Gibco) and penicillin-streptomycin (Gibco) in an incubator set to 37° C. and 5% CO2. When indicated cells were treated with 2.5 μM or 5 μM 5-Azacytidine (sigma) as indicated with a daily change of medium containing freshly diluted drug. Cells were seeded into 12-well plates at 150,000 cells per well the day before being transfected with 100 ng of dCas9 construct, 100 ng of modified sgRNA construct and 200 ng of PUF-fusion with Attractene transfection reagent according to manufacturer's instructions (Qiagen). In dCas9-direct fusion experiments, cells were transfected with 200 ng dCas9-fusion constructs and 200 ng of modified sgRNA constructs. Transfected cells were harvested 60 hours after transfection, or otherwise indicated, and cell pellets were used for extractions of RNA, genomic DNA and protein.\nQuantitative RT-PCR analysis. Cells were harvested, washed with Dulbecco's phosphate-buffered saline (dPBS), centrifuged at 125×g for 5 min and then the flash-frozen pellets were stored at −80° C. RNA was extracted using RNeasy Plus Mini Kit according to the manufacturer's instructions (Qiagen). cDNA libraries were made using Applied Biosystems High Capacity RNA-to-cDNA kit with 200 ng to 1 μg of RNA. TaqMan gene expression assays (Applied Biosystems) were designed using GAPDH (Hs03929097, VIC) as endogenous control and hMLH1 (Hs00179866, FAM) as target. TaqMan Universal Master Mix II, with UNG (Applied Biosystems) was used for Quantitative PCR (qPCR), with 2 μl of diluted cDNA used for each reaction. Activation was analyzed with the Applied Biosystems ViiA7 instrument. Gene expression levels were calculated by “delta delta Ct” algorithm and normalized to control samples.\nHEK293T cells were cultivated in Dulbecco's modified Eagle's medium (DMEM) (Sigma) with 10% fetal bovine serum (FBS) (Lonza), 4% Glutamax (Gibco), 1% Sodium Pyruvate (Gibco) and penicillin-streptomycin (Gibco) in an incubator set to 37° C. and 5% CO2. Cells were seeded into 12-well plates at 150,000 cells per well the day before being transfected with 100 ng of dCas9 construct, 100 ng of modified sgRNA construct and 200 ng of PUF-fusion with Attractene transfection reagent according to manufacturer's instructions (Qiagen). Transfected cells were harvested 3 days after transfection, or otherwise indicated, and cell pellets were used for RNA extractions.\nCells were harvested, washed with Dulbecco's phosphate-buffered saline (dPBS), centrifuged at 125×g for 5 min and then the flash-frozen pellets were stored at −80° C. RNA was extracted using RNeasy Plus Mini Kit according to the manufacturer's instructions (Qiagen). cDNA libraries were made using Applied Biosystems High Capacity RNA-to-cDNA kit with 200 ng to 2 μg of RNA. TaqMan gene expression assays (Applied Biosystems) were designed using GAPDH (Hs03929097, VIC) as endogenous control and hMLH1 (Hs00179866, FAM) as target. TaqMan Universal Master Mix II, with UNG (Applied Biosystems) was used for Quantitative PCR (qPCR), with 2 μl of diluted cDNA used for each reaction. Activation was analyzed with the Applied Biosystems ViiA7 instrument. Gene expression levels were calculated by “delta delta Ct” algorithm and normalized to control samples."}, "[2]": {"test_system": "MLH1 protein in HEK293T cells", "assay": "Western blot of MLH1 protein with anti-hMLH1 monoclonal antibody", "type": "cell-based, human", "details": "HEK293T collected 3 day after transfection", "description": "To determine the effect of Casilio-ME targeting on MLH1 protein synthesis, Western blot analyses were performed on total protein extracted from HEK293T transfected cells as well as untransfected HEK293 and AzaC-treated HEK293T cells using anti-hMLH1 monoclonal antibody. […] Casilio-ME-mediated induction of MLH1 synthesis is still remarkable and could be improved by, for example, tilling multiple guide RNAs to augment the range and efficiency of CpG demethylation to achieving better activation of hMLH1 expression.\nWestern blot analysis. Protein from cell extracts (30 μg) were separated by electrophoresis on 10% SDS-polyacrylamide gels and then transferred to nitrocellulose membranes at 100 V for 1 hour using Bjerrum Schafer-Nielsen Buffer with SDS. Blocked membrane in 5% Blotting-Grade Blocker (BioRad) in TBS-T were then incubated overnight at 4° C. with the indicated antibodies, and the protein bands were detected using Horseradish peroxidase-conjugated secondary antibodies and Clarity Western ECL Substrate according to manufacturer's instructions (BioRad). Gels were imaged using a G:Box (Syngene)."}}}
{"molecule": "GADD45A-PUFa-TET1(CD): GADD45A at N-terminus of PUFa-TET1(CD); SEQ ID NO:104 (protein) MTLEEFSAGEQKTERMDKVGDALEEVLSKALSQRTITVGVYEAAKLLNVDPDNVVLCLLAADEDDDRDVALQIHFTLIQAFCCENDINILRVSNPGRLAELLLLETDAGPAASEGAEQPPDLHCVLVTNPHSSQWKDPALSQLICFCRESRYMDQWVPVINLPERSRTGAATMIDGGGGSDPKKKRKVDPKKKRKVDPKKKRKVGSTGSRNDGGGGSGGGGSGGGGSGRAGILPPKKKRKVSRGRSRLLEDFRNNRYPNLQLREIAGHIMEFSQDQHGSRFIQLKLERATPAERQLVFNEILQAAYQLMVDVFGNYVIQKFFEFGSLEQKLALAERIRGHVLSLALQMYGSRVIEKALEFIPSDQQNEMVRELDGHVLKCVKDQNGNHVVQKCIECVQPQSLQFIIDAFKGQVFALSTHPYGCRVIQRILEHCLPDQTLPILEELHQHTEQLVQDQYGNYVIQHVLEHGRPEDKSKIVAEIRGNVLVLSQHKFASNVVEKCVTHASRTERAVLIDEVCTMNDGPHSALYTMMKDQYANYVVQKMIDVAEPGQRKIVMHKIRPHIATLRKYTYGKHILAKLEKYYMKNGVDLGDPKKKRKVDPKKKRKVGGRGGGGSGGGGSGGGGSGPAELPTCSCLDRVIQKDKGPYYTHLGAGPSVAAVREIMENRYGQKGNAIRIEIVVYTGKEGKSSHGCPIAKWVLRRSSDEEKVLCLVRQRTGHHCPTAVMVVLIMVWDGIPLPMADRLYTELTENLKSYNGHPTDRRCTLNENRTCTCQGIDPETCGASFSFGCSWSMYFNGCKFGRSPSPRRFRIDPSSPLHEKNLEDNLQSLATRLAPIYKQYAPVAYQNQVEYENVARECRLGSKEGRPFSGVTACLDFCAHPHRDIHNMNNGSTVVCTLTREDNRSLGVIPQDEQLHVLPLYKLSDTDEFGSKEGMEAKIKSGAIEVLAPRRKKRTCFTQPVPRSGKKRAAMMTEVLAHKIRAVEKKPIPRIKRKNNSTTTNNSKPSSLPTLGSNTETVQPEVKSETEPHFILKSSDNTKTYSLMPSAPHPVKEASPGFSWSPKTASATPAPLKNDATASCGFSERSSTPHCTMPSGRLSGANAAAADGPGISQLGEVAPLPTLSAPVMEPLINSEPSTGVTEPLTPHQPNHQPSFLTSPQDLASSPMEEDEQHSEADEPPSDEPLSDDPLSPAEEKLPHIDEYWSDSEHIFLDANIGGVAIAPAHGSVLIECARRELHATTPVEHPNRNHPTRLSLVFYQHKNLNKPQHGFELNKIKFEAKEAKNKKMKASEQKDQAANEGPEQSSEVNELNQIPSHKALTLTHDNVVTVSPYALTHVAGPYNHWVID", "values": [{"measurement": "enhancement of hMLH1 expression relative to PUFa-TET1(CD) alone", "setting": "[1]; GADD45A two-in-one effectors, HEK293T, TaqMan", "result": "approximately 9 fold"}, {"measurement": "ranking of activation among GADD45A and TET1(CD) fusion configurations", "setting": "[1]; methylation-silenced hMLH1", "result": "highest activity"}, {"measurement": "MLH1 protein amount by Western blot (whole cell extracts)", "setting": "[2]", "result": "higher protein amounts"}]}
